Source: the MegaScale stability set (Tsuboyama et al. 2023)

B1: EHEE_rd4_0086 (parent)
chain: EIHIRTNGEEQARKVYKMLAKRNYDVKIEQHNGQWVVTAS

Variants of: B1
Test: folding stability dG (cDNA display proteolysis); higher = more stable
Conditions: PBS, room temperature

Variant | folding stability dG [kcal/mol]
E29I | 1.97
E29S | 1.99
E29Q | 1.82
E29N | 1.57
E29Y | 2.48
E29M | 1.93
E29D | 1.26
E29G | 1.48
E29L | 1.75
E29K | 1.6
E29H | 1.78
E29W | 2.33
E29V | 1.98
E29A | 1.8
E29R | 1.68
E29T | 2.02
E29F | 2.44
L19W | 1.02
L19M | 1.27
L19Y | 1.35
L19H | -0.775
L19I | 0.108
L19A | -0.32
L19V | -0.352

Variant | folding stability dG [kcal/mol]
L19F | 1.72
V15S | -0.033
V15F | 1.93
V15D | -0.861
V15I | 2.49
V15C | 2.6
V15T | 0.624
V15Y | 1.97
V15H | 0.525
V15A | 1.12
V15L | 2.35
V15N | -0.279
V15M | 1.62
V15Q | 0.153
V15E | -0.159
V15W | 2.43
V15R | 0.424
V15K | 0.551
Q34A | 1.77
Q34D | 1.51
H31A | 1.67
H31V | 2.24
H31I | 2.43
H31Q | 1.95

Variant | folding stability dG [kcal/mol]
H31W | 2.15
H31L | 2.12
H31T | 1.71
H31R | 1.98
H31E | 1.85
H31D | 1.78
H31P | 0.168
H31M | 2.03
H31G | 0.849
H31C | 2.09
H31S | 1.78
H31F | 2.11
H31Y | 2.03
H31N | 1.72
H31K | 2.04
N32S | 1.38
N32A | 1.7
N32F | 1.45
N32Q | 1.65
N32T | 0.816
N32P | 0.291
N32E | 1.76
N32I | 0.67
N32K | 1.54

Variant | folding stability dG [kcal/mol]
N32R | 1.3
N32D | 1.9
N32M | 1.64
N32L | 1.51
N32V | 0.762
N32G | 1.86
N32H | 1.55
N32W | 1.12
N32Y | 1.38
I28K | -0.269
I28F | 0.516
I28S | -0.437
I28A | 0.154
I28R | -0.747
I28L | 1.56
I28M | 1.69
I28Q | -0.461
I28V | 1.29
I28T | -0.114
I28Y | 0.682
I28W | 0.131
Q30I | 2.1
Q30S | 1.58
Q30C | 2.32

Variant | folding stability dG [kcal/mol]
Q30N | 2.01
Q30W | 1.8
Q30A | 1.33
Q30V | 2.22
Q30T | 1.49
Q30Y | 2.3
Q30D | 1.07
Q30M | 1.81
Q30E | 1.85
Q30H | 1.93
Q30F | 2.38
Q30K | 1.88
Q30R | 1.81
Q30P | 0.717
Q30L | 1.93
Q30G | 0.999
D25V | 2.31
D25I | 2.34
D25T | 2.25
D25R | 2.25
D25Y | 2.09
D25M | 2.21
D25E | 1.91
D25H | 2.15

Variant | folding stability dG [kcal/mol]
D25Q | 2.23
D25G | 1.22
D25K | 2.36
D25L | 2.21
D25N | 2.27
D25F | 2.14
D25S | 1.99
D25W | 1.89
D25P | 1.08
D25A | 1.96
K17W | 2.11
K17A | 2.25
K17C | 3.19
K17N | 2.07
K17L | 2.08
K17V | 1.91
K17D | 2.06
K17E | 2.37
K17Y | 1.99
K17G | 1.33
K17F | 1.86
K17H | 1.83
K17T | 1.91
K17Q | 2.1

Variant | folding stability dG [kcal/mol]
K17I | 2.03
K17M | 2.15
K17R | 2.02
K17S | 1.77
K17P | -0.583
Y16G | 1.88
Y16H | 1.03
Y16N | -0.095
Y16I | 0.973
Y16E | 0.776
Y16L | 1.55
Y16A | 2.76
Y16R | 1.15
Y16W | 1.38
Y16V | 1.23
Y16S | 1.5
Y16T | 0.377
Y16M | 2.15
Y16K | 1.07
Y16F | 1.93
Y16Q | 1.38
Y24F | 1.93
Y24Q | 0.902
Y24S | 0.914

Variant | folding stability dG [kcal/mol]
Y24D | 0.514
Y24T | 0.886
Y24L | 1.69
Y24I | 1.42
Y24W | 2
Y24M | 1.71
Y24K | 1.25
Y24H | 1.18
Y24N | 0.737
Y24P | 0.856
Y24V | 1.29
Y24A | 1.08
Y24R | 1.3
Y24G | 0.656
Y24E | 0.458
R22D | 1.08
R22T | 1.16
R22N | 1.45
R22W | 2.29
R22K | 1.85
R22A | 1.84
R22E | 1.29
R22Q | 1.76
R22H | 1.86

Variant | folding stability dG [kcal/mol]
R22M | 2.32
R22Y | 2.05
R22S | 1.37
R22L | 2.45
R22P | -0.563
R22I | 1.31
R22V | 1.01
R22F | 2.04
R22G | 1.16
K14V | 1.42
K14E | 1.68
K14M | 1.87
K14S | 1.34
K14I | 1.82
K14Y | 2.02
K14W | 2.35
K14T | 1.32
K14Q | 1.8
K14H | 1.53
K14F | 1.89
K14R | 2.12
K14L | 1.91
K14N | 1.29
K14G | 0.786

Variant | folding stability dG [kcal/mol]
N23K | 1.68
N23E | 1.12
N23C | 2.9
N23L | 1.74
N23P | 0.533
N23T | 0.87
N23Q | 1.67
N23I | 0.912
N23Y | 2.86
N23W | 2.36
N23G | 3.46
N23D | 1.33
N23A | 1.69
N23R | 1.68
N23V | 0.904
N23F | 2.79
N23H | 2.35
N23S | 1.55
N23M | 1.89
K21S | 2.09
K21L | 2.06
K21W | 1.61
K21F | 1.7
K21V | 1.63

Variant | folding stability dG [kcal/mol]
K21T | 1.67
K21Y | 1.61
K21H | 1.69
K21D | 2.13
K21I | 1.82
K21A | 2.4
K21C | 2.71
K21R | 1.95
K21M | 2.15
K21E | 2
K21Q | 2.1
K21P | -0.238
K21N | 1.77
K21G | 1.82
A20Y | 1.55
A20D | 0.486
A20I | 2.17
A20K | 2.43
A20V | 2.18
A20F | 1.58
A20M | 2.21
A20R | 2.14
A20W | 1.46
A20T | 1.75

Variant | folding stability dG [kcal/mol]
A20G | 0.826
A20H | 1.36
A20N | 0.982
A20S | 1.78
A20E | 1.52
A20L | 2.51
A20Q | 2.16
G33N | 1.24
G33A | 0.852
G33I | 0.069
G33D | 1.35
G33K | 0.996
G33F | 0.875
G33L | 0.714
G33H | 1.49
G33T | 0.841
G33E | 1.21
G33S | 1.08
G33W | 0.42
G33M | 0.969
G33V | 0.374
G33R | 0.801
G33Q | 0.937
G33Y | 0.642

Variant | folding stability dG [kcal/mol]
V26W | 0.204
V26L | 0.829
V26S | -0.013
V26R | -0.177
V26I | 1.09
V26Y | -0.299
V26P | 1.02
V26A | 1.1
V26M | 0.338
V26F | -0.182
V26G | -0.027
V26T | 0.533
M18F | 2.25
M18T | 1.12
M18Q | 1.5
M18G | 0.727
M18K | 1.37
M18Y | 2.37
M18A | 1.84
M18R | 1.25
M18S | 1.35
M18I | 1.81
M18N | 1.14
M18H | 1.54

Variant | folding stability dG [kcal/mol]
M18L | 1.82
M18W | 2.61
M18V | 1.48
M18E | 1.67
M18D | 1.08
K27I | 1.45
K27W | 1.52
K27G | 0.682
K27L | 1.12
K27V | 1.45
K27N | 1.16
K27T | 1.68
K27M | 1.32
K27E | 0.722
K27Q | 1.44
K27A | 1.26
K27Y | 1.45
K27F | 1.33
K27D | 0.311
K27S | 1.5
K27R | 1.95
K27H | 1.66
